The source of these data is patent US20250163181A1.

For orientation: EC50 means the concentration giving half of the maximal effect. A word on the Kd: it is the equilibrium constant for the complex coming apart. A higher Kd goes with a looser complex. The term koff denotes a measure of how fast the partners let go of each other. Higher therefore signals fast dissociation. What is called kon is the rate constant with which the complex forms. Read a high kon as faster complex formation.

Experiment [1] concerns the target human prothrombin wild-type (human) (UniProt P00734). Put plainly: SPR, calculated from Kd; prothrombin with 200 µM argatroban.
The target is the same in experiment [2]. Put plainly: ELISA, antigen immobilised, Hill fit.
Experiment [3] concerns the target kringle-2 of human prothrombin (amino acids 156-271) (human) (UniProt P00734). Nature of the experiment: ELISA, antigen immobilised, Hill fit. On the technique in general: An ELISA detects its analyte on a solid surface through an enzyme-linked reagent.
Experiment [4] concerns the target prothrombin variant S91A/Y93A (human) (UniProt P00734). Put plainly: ELISA, antigen immobilised, Hill fit.
Experiment [5] addresses human prothrombin wild-type (human) (UniProt P00734). Put plainly: SPR, AHP immobilised, HEPES buffer, 25 C.
Experiment [6] addresses kringle-2 of human prothrombin (amino acids 156-271) (human) (UniProt P00734). Put plainly: SPR, AHP immobilised, HEPES buffer, 25 C. On the technique in general: SPR reads the build-up and loss of mass on a sensor chip optically.
Experiment [7] addresses prothrombin variant S91A/Y93A (human) (UniProt P00734). Put plainly: SPR, AHP immobilised, HEPES buffer, 25 C.
In experiment [8] the target is human prothrombin wild-type (human) (UniProt P00734). Nature of the experiment: SPR, calculated from Kd.
Experiment [9] addresses kringle-2 of human prothrombin (amino acids 156-271) (human) (UniProt P00734). Nature of the experiment: SPR, calculated from Kd.
Experiment [10] addresses prothrombin variant S91A/Y93A (human) (UniProt P00734). Nature of the experiment: SPR, calculated from Kd.
Experiment [11] has as its target human prothrombin wild-type (human) (UniProt P00734). Nature of the experiment: SPR, AHP immobilised; prothrombin with 200 µM argatroban (open form).

Consider Antibody AHP (Prolytix AHP-5013), for which the ΔG was -10.1 kcal/mol in [1], -10.1 kcal/mol in experiment [8], -10.3 kcal/mol in [9] and -10.5 kcal/mol in experiment [10]. The EC50 in [2] was 0.195 µg/mL; in experiment [3] it was 0.249 µg/mL; in experiment [4], 0.185 µg/mL. Moreover, the Kd in experiment [5] stood at 0.0383 µM; in experiment [6] it was 0.0278 µM; in [7], 0.0195 µM; in [11], 0.0374 µM. Moreover, the koff turned out to be 0.000136 s⁻¹ in experiment [5], 0.000128 s⁻¹ in experiment [6], 0.000123 s⁻¹ in experiment [7] and 0.000122 s⁻¹ in [11]. For the same substance, the kon is 3540 M⁻¹ s⁻¹ in experiment [5], 4600 M⁻¹ s⁻¹ in experiment [6], 6320 M⁻¹ s⁻¹ in experiment [7] and 3270 M⁻¹ s⁻¹ in experiment [11].
